In IntAct's records for PubMed 20531387:

B1: Centrosomal P4.1-associated protein (Homo sapiens), Q9HC77 (parent)
chain: MFLMPTSSELNSGQNFLTQWMTNPSRAGVILNRGFPILEADKEKRAAVDISTSFPIKGTHFSDSFSFINEEDSLLEEQKLESNNPYKPQSDKSETHTAFPCIKKGPQVAACHSAPGHQEENKNDFIPDLASEFKEGAYKDPLFKKLEQLKEVQQKKQEQLKRQQLEQLQRLMEEQEKLLTMVSGQCTLPGLSLLPDDQSQKHRSPGNTTTGERATCCFPSYVYPDPTQEETYPSNILSHEQSNFCRTAHGDFVLTSKRASPNLFSEAQYQEAPVEKNNLKEENRNHPTGESILCWEKVTEQIQEANDKNLQKHDDSSEVANIEERPIKAAIGERKQTFEDYLEEQIQLEEQELKQKQLKEAEGPLPIKAKPKQPFLKRGEGLARFTNAKSKFQKGKESKLVTNQSTSEDQPLFKMDRQQLQRKTALKNKELCADNPILKKDSKARTKSGSVTLSQKPKMLKCSNRKSLSPSGLKIQTGKKCDGQFRDQIKFENKVTSNNKENVTECPKPCDTGCTGWNKTQGKDRLPLSTGPASRLAAKSPIRETMKESESSLDVSLQKKLETWEREKEKENLELDEFLFLEQAADEISFSSNSSFVLKILERDQQICKGHRMSSTPVKAVPQKTNPADPISHCNRSEDLDHTAREKESECEVAPKQLHSLSSADELREQPCKIRKAVQKSTSENQTEWNARDDEGVPNSDSSTDSEEQLDVTIKPSTEDRERGISSREDSPQVCDDKGPFKDTRTQEDKRRDVDLDLSDKDYSSDESIMESIKHKVSEPSRSSSLSLSKMDFDDERTWTDLEENLCNHDVVLGNESTYGTPQTCYPNNEIGILDKTIKRKIAPVKRGEDLSKSRRSRSPPTSELMMKFFPSLKPKPKSDSHLGNELKLNISQDQPPGDNARSQVLREKIIELETEIEKFKAENASLAKLRIERESALEKLRKEIADFEQQKAKELARIEEFKKEEMRKLQKERKVFEKYTTAARTFPDKKEREEIQTLKQQIADLREDLKRKETKWSSTHSRLRSQIQMLVRENTDLREEIKVMERFRLDAWKRAEAIESSLEVEKKDKLANTSVRFQNSQISSGTQVEKYKKNYLPMQGNPPRRSKSAPPRDLGNLDKGQAASPREPLEPLNFPDPEYKEEEEDQDIQGEISHPDGKVEKVYKNGCRVILFPNGTRKEVSADGKTITVTFFNGDVKQVMPDQRVIYYYAAAQTTHTTYPEGLEVLHFSSGQIEKHYPDGRKEITFPDQTVKNLFPDGQEESIFPDGTIVRVQRDGNKLIEFNNGQRELHTAQFKRREYPDGTVKTVYANGHQETKYRSGRIRVKDKEGNVLMDTEL
partner: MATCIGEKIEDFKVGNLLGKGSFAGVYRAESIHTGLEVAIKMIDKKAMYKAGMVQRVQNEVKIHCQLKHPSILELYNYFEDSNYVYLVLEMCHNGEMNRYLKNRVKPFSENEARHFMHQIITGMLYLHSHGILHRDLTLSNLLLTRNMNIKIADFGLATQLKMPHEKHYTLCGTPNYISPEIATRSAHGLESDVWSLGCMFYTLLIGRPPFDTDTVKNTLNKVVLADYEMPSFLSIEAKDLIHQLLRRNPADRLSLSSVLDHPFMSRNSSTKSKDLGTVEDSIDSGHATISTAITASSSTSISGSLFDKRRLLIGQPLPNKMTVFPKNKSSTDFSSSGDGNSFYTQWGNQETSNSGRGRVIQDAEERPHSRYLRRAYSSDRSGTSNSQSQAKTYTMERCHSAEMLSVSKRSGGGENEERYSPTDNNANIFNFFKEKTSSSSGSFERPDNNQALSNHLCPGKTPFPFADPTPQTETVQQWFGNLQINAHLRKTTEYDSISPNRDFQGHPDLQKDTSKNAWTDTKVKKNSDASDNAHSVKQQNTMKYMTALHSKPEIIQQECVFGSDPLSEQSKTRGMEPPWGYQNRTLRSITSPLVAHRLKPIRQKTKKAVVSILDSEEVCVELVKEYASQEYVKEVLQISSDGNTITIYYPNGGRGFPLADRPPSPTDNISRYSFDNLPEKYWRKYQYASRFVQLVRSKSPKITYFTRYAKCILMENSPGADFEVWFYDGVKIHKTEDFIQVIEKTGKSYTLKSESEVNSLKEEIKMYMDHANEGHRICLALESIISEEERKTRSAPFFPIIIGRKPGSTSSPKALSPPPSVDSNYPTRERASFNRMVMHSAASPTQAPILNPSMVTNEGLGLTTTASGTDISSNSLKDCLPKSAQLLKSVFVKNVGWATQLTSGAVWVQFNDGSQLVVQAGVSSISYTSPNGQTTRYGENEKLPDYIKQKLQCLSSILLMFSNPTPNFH
B2: Centrosomal P4.1-associated protein (Homo sapiens), Q9HC77 (parent)
chain: B1 chain

Variants of: B1
Settings: with plk4_human PLK4, O00444

Variant	effect of a mutation on the interaction
S595A	disrupting interaction
S589A	disrupting interaction

Variants of: B2
Settings: with plk2_human PLK2, Q9NYY3
Chain of plk2_human PLK2, Q9NYY3 (Q9NYY3 whole entry, looked up): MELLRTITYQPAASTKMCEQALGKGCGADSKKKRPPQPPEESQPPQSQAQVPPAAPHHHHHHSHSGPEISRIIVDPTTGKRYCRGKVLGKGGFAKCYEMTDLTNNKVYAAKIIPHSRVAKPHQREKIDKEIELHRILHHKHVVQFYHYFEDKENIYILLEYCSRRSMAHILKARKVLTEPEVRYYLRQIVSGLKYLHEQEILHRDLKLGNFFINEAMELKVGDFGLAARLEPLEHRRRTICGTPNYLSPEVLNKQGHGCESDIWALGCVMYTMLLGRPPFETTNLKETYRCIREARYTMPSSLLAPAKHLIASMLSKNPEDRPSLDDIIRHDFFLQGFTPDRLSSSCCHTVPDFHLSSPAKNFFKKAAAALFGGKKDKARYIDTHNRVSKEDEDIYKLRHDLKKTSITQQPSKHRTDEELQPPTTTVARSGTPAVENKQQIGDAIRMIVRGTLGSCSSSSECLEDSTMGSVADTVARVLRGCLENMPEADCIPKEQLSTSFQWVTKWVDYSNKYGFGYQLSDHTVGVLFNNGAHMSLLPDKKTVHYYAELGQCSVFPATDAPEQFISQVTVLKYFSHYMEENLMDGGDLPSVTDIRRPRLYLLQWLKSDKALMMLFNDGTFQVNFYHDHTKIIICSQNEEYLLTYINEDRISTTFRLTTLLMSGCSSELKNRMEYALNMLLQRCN

Variant	effect of a mutation on the interaction
S589A	decreasing interaction

Variants of: B2
Settings: with plk2_human PLK2, Q9NYY3
Remark: another data set of the same source

Variant	effect of a mutation on the interaction
S589A	disrupting interaction
S595A	disrupting interaction

Variants of: B2
Settings: with plk2_human PLK2, Q9NYY3
Remark: another data set of the same source

Variant	effect of a mutation on the interaction
S595A	decreasing interaction
